Substrate in data set [1]: CCCC(=O)Oc1ccc([N+](=O)[O-])cc1
As to the kind of experiment: purified protein. The data set is classed as biochemical, Altericroceibacterium indicum. The settings on record: 100 mM Tris-HCl pH 7.5, 40 °C, substrate 0.05-2 mM.

Substrate in data set [2]: CCCCCC(=O)Oc1ccc([N+](=O)[O-])cc1
As to the kind of experiment: purified protein. The class given is biochemical, Croceicoccus marinus. The note with it: 100 mM Tris-HCl pH 7.5, 20 °C, substrate 0.05-2 mM.

B1: AlinE4 (Altericroceibacterium indicum) (protein)
chain: SMGESRVILAFGDSLFAGYGLDKGESYPAKLETALRSHGINARIINAGVSGDTTAAGLQRIKFVLDSQPDKPELAIVELGGNDLLRGLSPAEARQNLSGILEELQRRKIPILLMGMRAPPNLGAKYQREFDGIYPYLAEKYDAKLVPFFLEAVADRPDLIQKDHVHPTARGVEELVSATSNAVAKALPAKK
notes: expressed in E. coli BL21 (DE3) from pSMT3, N-terminal His-Sumo tag removed with ULP1; monomer in solution by MALS, domain-swapped dimer in crystal
With B1, in data set [1], the Km was 100 µM and the kcat is 25.8 s⁻¹.

B2: CrmE10 (Croceicoccus marinus) (protein)
chain: MADGEAAGQQADAVMPTGPAIDVLAFGDSLFAGYRLDRDESYPARLQAALRERGLNVNVTNAGVSGDTTAAGLQRIDFVLDSMAGEPDLVLLELGANDMLRGLPAEEARRNLDTILQRLDQRDIPVMVYGMRAAPNLGGDYGRSFDSIFPDLADKYDAELVPFFIEPLIFDRSLVQQDQLHPTAQGVDAMVEQTVEQVEDRIDDL
notes: as for B1
In the case of B2, in data set [2], the Km turned out to be 160 µM and the kcat amounted to 29.4 s⁻¹.

In general, Km refers to the concentration of substrate that gives half-maximal velocity. What is called kcat is the number of substrate molecules converted per active site and unit of time at saturation.

These data come from article PMC7294632, “Structure-guided protein engineering increases enzymatic activities of the SGNH family esterases” (Biotechnology for Biofuels, 2020).
